Test [1] deals with fLfs isolated from IPF lungs (hfLfs). The test is described as follows: Pro-fibrogenic marker expression in fLfs in vitro (immunoblot and mRNA). The test is classed as cell-based, human. The settings on record: 2 μg/ml, 48 h, immunoblot. How it is done:
FIGS. 3A-3B. Antibodies specific for M9 inhibited pro-fibrogenic markers expression in fLfs in vitro. hfLfs were serum starved and treated with PBS or 2 μg/ml M9 antibody (M9Ab), or 2 μg/ml M9Ab plus 20 μM CSP7 for 48 hours (FIG. 3A). After treatment, cells were harvested and cell lysates were immunoblotted for pro-fibrogenic markers and M9, and 3-actin was used as loading control.
FIG. 4. […]
FIGS. 7A-7M. […] Lung volumes (FIG. 7B) were measured by quantitative-CT renditions, and lung compliance (FIG. 7C) and elastance (FIG. 7D) were measured using a flexiVent system. […] Statistical significance (*P<0.05, **P<0.01, ***P<0.001 and ****P<0.0001) was assessed by one-way ANOVA with Turkey's multiple comparison.
FIGS. 9A-9O. […] FIG. 9B: Lung volumes were measured by quantitative-CT renditions. Lung compliance (FIG. 9C) and elastance (FIG. 9D) were measured using a flexiVent system. […] Statistical significance (*P<0.05, **P<0.01, ***P<0.001 and ****P<0.0001) was assessed by one-way ANOVA with Turkey's multiple comparison. fLfs isolated from IPF lungs treated with PBS or recombinant full length M9 (rM9^FL) protein (2 μg/ml) for 48 h in vitro were tested for pro-fibrogenic proteins (FIG. 9L). fLfs (from IPF lungs) treated with PBS or extracellular domain of rM9^FL protein (rM9^ECD) as in FIG. 9L were tested for pro-fibrogenic proteins (FIG. 9N). […]

In test [2] the test system is BLM-induced pulmonary fibrosis. Description: BLM-induced established pulmonary fibrosis in mice, treatment d14-d21. The test is classed as in vivo. The method, then:
FIGS. 9A-9O. M9 peptide and protein mitigated BLM-induced pulmonary fibrosis. Mice exposed to saline or 1.0 U/kg BLM by intratracheal instillation were treated with or without M9 peptide HGHVDPVKTPKI (SEQ ID NO: 4) (10 mg/kg/d) and M9 protein (SEQ ID NO: 1) 7.5 mg/kg/d) via IP injection daily for 7 days starting d14 after BLM injury. FIG. 9A: Representative micro-CT images at d21 after BLM exposure. FIG. 9B: Lung volumes were measured by quantitative-CT renditions. Lung compliance (FIG. 9C) and elastance (FIG. 9D) were measured using a flexiVent system. Lung weights (FIG. 9E) and body weights (FIG. 9F) are presented as bar graphs. Lung homogenates were tested for hydroxyproline (FIG. 9G), soluble collagen (FIG. 9H), pro-fibrogenic marker proteins (FIG. 9I) and mRNAs (FIG. 9J). Bars indicate mean±SD. Statistical significance (*P<0.05, **P<0.01, ***P<0.001 and ****P<0.0001) was assessed by one-way ANOVA with Turkey's multiple comparison. fLfs isolated from IPF lungs treated with PBS or recombinant full length M9 (rM9^FL) protein (2 μg/ml) for 48 h in vitro were tested for pro-fibrogenic proteins (FIG. 9L). fLfs (from IPF lungs) treated with PBS or extracellular domain of rM9^FL protein (rM9^ECD) as in FIG. 9L were tested for pro-fibrogenic proteins (FIG. 9N). The survival the mice treated with rM9^FL is shown FIG. 9M.
FIGS. 10A-10K. UNC5A (“U5”) peptide/protein mitigated BLM-induced pulmonary fibrosis. Mice exposed to saline or 1.0 U/kg BLM by intratracheal instillation were treated with or without U5 peptide (50 residues, SEQ ID NO: 7) (10 mg/kg/d) and full length U5 protein (SEQ ID NO: 5) (7.5 mg/kg/d) via IP injection daily for 7 days starting d14 after BLM injury. FIG. 10A: Representative micro-CT images at d21 after BLM exposure. FIG. 10B: Lung volumes were measured by quantitative-CT renditions. Lung compliance (FIG. 10C) and elastance (FIG. 10D) were measured using a flexiVent system. Lung weights (FIG. 10E) and body weights (FIG. 10F) are presented as bar graphs. Lung homogenates were tested for hydroxyproline (FIG. 10G), soluble collagen (FIG. 10H), pro-fibrogenic marker proteins (FIG. 10I) and mRNAs (FIG. 10J). Bars indicate mean±SD. Statistical significance (*P<0.05, **P<0.01, ***P<0.001 and ****P<0.0001) was assessed by one-way ANOVA with Turkey's multiple comparison.
FIGS. 11A-11K. ALG5 (“A5”) protein mitigated BLM-induced pulmonary fibrosis. Mice exposed to saline or 1.0 U/kg BLM by intratracheal instillation were treated with or without A5 protein (SEQ ID NO: 9) (7.5 mg/kg/d) via IP injection daily for 7 days starting d14 after BLM injury. FIG. 11A: Representative micro-CT images at d21 after BLM exposure. FIG. 11B: Lung volumes were measured by quantitative-CT renditions. Lung compliance (FIG. 11C) and elastance (FIG. 11D) were measured using a flexiVent system. Lung weights (FIG. 11E) and body weights (FIG. 11F) are presented as bar graphs. Lung homogenates were tested for hydroxyproline (FIG. 11G), soluble collagen (FIG. 11H), pro-fibrogenic marker proteins (FIG. 11I) and mRNAs (FIG. 11J). Bars indicate mean±SD. *P<0.05, **P<0.01, ***P<0.001 and ****P<0.0001 were obtained by one-way ANOVA with Turkey's multiple comparison.
FIGS. 12A-12E. WT mice with BLM-PF were treated with or without rM9^ECD (1.5 mg/kg) via intratracheal (IT) instillation daily for 7 d starting d 14 after BLM. Survival (FIG. 12A), body weights (FIG. 12B), lung volumes (FIG. 12C) and lung weights (FIG. 12D) were measured on d 21 post-BLM. Lung homogenates were tested for soluble collagen (FIG. 12E).
FIGS. 13A-13B. FIG. 13A: fLfs (IPF) treated with PBS or M9^mAb (2 μg/ml) or control IgG, tested for pro-fibrogenic proteins (i) and mRNAs (ii). FIG. 13B: WT mice with BLM-PF were left untreated, or intraperitoneal (IP) injected with control IgG or M9^mAb (2.5 mg/kg) daily for 7 d starting 14 d after IT BLM. Body weights (i) and total lung hydroxyproline (ii), and soluble collagen (iii) were measured. […]

Where [3] appears, read: protein 7.5 mg/kg/d IP, 7 days starting d14 after BLM.
Setting [4] is: protein 7.5 mg/kg/d IP, 7 days starting d14 after BLM, flexiVent, d21.

“Also recorded” adds a separate entry of the source.

B1: M9 protein: recombinant full length human MEGF9 protein (SEQ ID NO: 1) (protein, listed as Homo sapiens)
chain: MNGGAERAMRSLPSLGGLALLCCAAAAAAAAVASAASAGNVTGGGGAAGQVDASPGPGLRGEPSHPFPRATAPTAQAPRTGPPRATVHRPLAATSPAQSPETTPLWATAGPSSTTFQAPLGPSPTTPPAAERTSTTSQAPTRPAPTTLSTTTGPAPTTPVATTVPAPTTPRTPTPDLPSSSNSSVLPTPPATEAPSSPPPEYVCNCSVVGSLNVNRCNQTTGQCECRPGYQGLHCETCKEGFYLNYTSGLCQPCDCSPHGALSIPCNSSGKCQCKVGVIGSICDRCQDGYYGFSKNGCLPCQCNNRSASCDALTGACLNCQENSKGNHCEECKEGFYQSPDATKECLRCPCSAVTSTGSCSIKSSELEPECDQCKDGYIGPNCNKCENGYYNFDSICRKCQCHGHVDPVKTPKICKPESGECINCLHNTTGFWCENCLEGYVHDLEGNCIKKEVILPTPEGSTILVSNASLTTSVPTPVINSTFTPTTLQTIFSVSTSENSTSALADVSWTQFNIIILTVIIIVVVLLMGFVGAVYMYREYQNRKLNAPFWTIELKEDNISFSSYHDSIPNADVSGLLEDDGNEVAPNGQLTLTTPIHNYKA
With B1, in test [1], the “pro-fibrogenic marker proteins (Col1, FN, TN-C and α-SMA) in fLfs” value was “reduced”. Besides, in test [2] (mice with BLM-induced existing PF, full length protein 7.5 mg/kg/d IP), the survival rate result is given as “significantly increased”. The “BLM-induced pulmonary fibrosis (overall)” value in test [2] (mice, 1.0 U/kg BLM IT, protein 7.5 mg/kg/d IP daily for 7 days starting d14, d21) is given as “resolved; also recorded: mitigated”. For the same molecule, in test [2] (setting [3]), the “BLM-induced fibrogenic marker proteins (Col1, FN, TN-C, α-SMA) in whole lung homogenates” value was “marked inhibition”; the body weight result is given as “improvement”; the “collagen and other extracellular matrix deposits (Trichrome staining of lung sections)” value was “remarkable reduction”; the “fibrogenic marker transcripts in whole lung homogenates” value is recorded as “marked inhibition”. In addition, the lung weight result in test [2] (setting [3]) was “reduction”. Besides, in test [2] (setting [4]), the lung compliance entry is given as “improved” and the lung elastance result is “improved”. Besides, the “whole lung total hydroxyproline” value in test [2] (protein 7.5 mg/kg/d IP, 7 days starting d14 after BLM, lung homogenates) was “significant inhibition”. The lung volume entry in test [2] (protein 7.5 mg/kg/d IP, 7 days starting d14 after BLM, quantitative CT, d21) is “improved”.

B2: rM9^ECD: recombinant extracellular domain of human MEGF9 (SEQ ID NO: 102) (protein, listed as Homo sapiens)
chain: MGWSCIILFLVATATGVHSAAVASAASAGNVTGGGGAAGQVDASPGPGLRGEPSHPFPRATAPTAQAPRTGPPRATVHRPLAATSPAQSPETTPLWATAGPSSTTFQAPLGPSPTTPPAAERTSTTSQAPTRPAPTTLSTTTGPAPTTPVATTVPAPTTPRTPTPDLPSSSNSSVLPTPPATEAPSSPPPGHQWPVAKMPQKYLGKYACESNLKSKYLPLTQPVMNLRVSEAVKTEYVCNCSVVGSLNVNRCNQTTGQCECRPGYQGLHCETCKEGFYLNYTSGLCQPCDCSPHGALSIPCNSSGKCQCKVGVIGSICDRCQDGYYGFSKNGCLPCQCNNRSASCDALTGACLNCQENSKGNHCEECKEGFYQSPDATKECLRCPCSAVTSTGSCSIKSSELEPECDQCKDGYIGPNCNKCENGYYNFDSICRKCQCHGHVDPVKTPKICKPESGECINCLHNTTGFWCENCLEGYVHDLEGNCIKKEVILPTPEGSTILVSNASLTTSVPTPVINSTFTPTTLQTIFSVSTSENSTSALADVSWTQFN
Consider B2, for which the “pro-fibrogenic marker proteins (Col1, FN, TN-C and α-SMA) in fLfs” value in test [1] is given as “reduced”. For the same molecule, the lung function entry in test [2] (1.5 mg/kg intratracheal (IT) instillation daily for 7 d starting d 14 after BLM) was “improved”. The “existing BLM-induced PF (overall)” value in test [2] (WT mice with BLM-PF, 1.5 mg/kg intratracheal (IT) instillation daily for 7 d starting d 14, d 21, 1.5 mg/kg) is recorded as “resolved; also recorded: resolution”. Further, the survival rate entry in test [2] (mice with BLM-induced existing PF treated with extracellular domain protein, dose not printed (FIG. 9)) is given as “significantly increased”.

For the origin of these results see patent publication US12173061B2, “Compositions and methods for treatment of chronic lung diseases” (Board of Regents, The University of Texas System, priority 2021, dated 2024).
